Data as given in patent EP2105446A2.

Assays:
[1] = biological target: MPL-zalpha11 polypeptide chimera (MPL extracellular and TM domain fused to the zalpha11 intracellular signaling domain), expressed on BaF3 cells (human) (UniProt P40238); assay: cell-based or functional assay
[2] = biological target: factor present in the activated CD3+ selected human T-cell conditioned media (human); assay: cell-based or functional assay

Row | Substance | proliferation of BaF3/MPL-zalpha11 cells (Alamar Blue) (fold over background) [1] | inhibition of BaF3/Zalpha11 cell growth (Alamar Blue), concentration giving complete inhibition [2] | titration of soluble receptor, lowest concentration giving complete inhibition of BaF3/Zalpha11 growth [2]
1 | thrombopoietin (TPO) (ligand) | 10 |  | 
2 | zalpha11-Fc4 (mutant) soluble receptor (zalpha11 extracellular domain fused C-terminally to human IgG/Fc) (from UniProt Q9HBE5 20-237) (Fc fusion) |  | 10 µg/mL | 1.5 µg/mL
